In article PMC9575183 (Developmental cell, 2020):

Target: T1, Recombinant GST-RILP wt, full length (human, UniProt Q96NA2 1-401)
T1 sequence (looked up): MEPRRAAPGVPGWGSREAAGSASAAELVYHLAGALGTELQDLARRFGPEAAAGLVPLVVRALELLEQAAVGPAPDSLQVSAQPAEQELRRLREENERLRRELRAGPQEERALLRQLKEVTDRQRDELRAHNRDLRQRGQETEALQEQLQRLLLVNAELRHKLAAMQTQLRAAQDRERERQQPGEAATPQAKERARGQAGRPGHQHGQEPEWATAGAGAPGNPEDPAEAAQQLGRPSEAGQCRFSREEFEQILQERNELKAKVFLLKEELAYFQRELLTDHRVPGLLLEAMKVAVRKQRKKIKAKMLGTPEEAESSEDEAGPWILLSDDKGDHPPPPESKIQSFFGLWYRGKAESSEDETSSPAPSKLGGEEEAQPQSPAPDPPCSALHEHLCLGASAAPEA
Assay: pull-down

B1: Recombinant human His-tagged ATG5 (natural protein, UniProt Q9H1Y0 1-275, looked up)
chain: MTDDKDVLRDVWFGRIPTCFTLYQDEITEREAEPYYLLLPRVSYLTLVTDKVKKHFQKVMRQEDISEIWFEYEGTPLKWHYPIGLLFDLLASSSALPWNITVHFKSFPEKDLLHCPSKDAIEAHFMSCMKEADALKHKSQVINEMQKKDHKQLWMGLQNDRFDQFWAINRKLMEYPAEENGFRYIPFRIYQTTTERPFIQKLFRPVAADGQLHTLGDLLKEVCPSAIDPEDGEKKNQVMIHGIEPMLETPLQWLSEHLSYPDNFLHISIIPQPTD
Does B1 bind?
Result: binds
